{"source": "patent US20030148417", "proteins": {"B1": {"name": "recombinant TcAP2 protein (aspartic endoproteinase from Theobroma cacao, secreted by Yarrowia lipolytica clone pCY330-33) (protein)", "chain": "VSNDGLVRIGLKKMKLDPNNRLAARLDSKDGEALRAFIKKYRFRNNLGDSEETDIVALKNYMDAQYYGEIGIGTPTQKFTVIFDTGSSNLWVSSTKCYFSVACYFHEKYKASDSSTYKKDGKPASIQYGTGAISGFFSYDHVQVGDLVVKDQEFIEATKEPGLTFMVAKFDGILGLGFKEISVGDAVPVWYNMIKQGLIKEPVFSFWLNRNVDEEAGGEIVFGGVDPNHYKGKHTYVPVTQKGYWQFDMGDVLIADKPTGYCAGSCAAIADSGTSLLAGPSTVITMINHAIGATGVVSQECKAVVQQYGRTIIDLLIAEAQPQKICSQIGLCTFNGAHGVSTGIESVVDESNGKSSGVLRDAMCPACEMAVVWMQNQVRQNQTQDRILSYVNELCDRVPNPMGESAVDCGSLSSMPTISFTIGGKVFDLTPEEYILKVGEGSEAQCISGFTALDIPPPRGPLWILGDIFMGRYHTVFDFGKLRVGFAEAAHHH"}}, "key": {"[1]": {"target": "bovine haemoglobin, P01966", "sequence (P01966 2-142, chain 1 of 2)": "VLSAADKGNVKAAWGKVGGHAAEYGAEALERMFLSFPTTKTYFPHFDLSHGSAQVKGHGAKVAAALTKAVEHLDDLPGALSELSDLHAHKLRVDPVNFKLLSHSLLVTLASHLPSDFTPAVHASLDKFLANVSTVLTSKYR", "sequence (chain, as listed by the source, chain 2 of 2)": "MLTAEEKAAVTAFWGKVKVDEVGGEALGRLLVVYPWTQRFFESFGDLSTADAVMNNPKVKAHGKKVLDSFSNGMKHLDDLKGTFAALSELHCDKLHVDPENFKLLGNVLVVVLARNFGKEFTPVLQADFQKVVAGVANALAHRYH"}}, "data": [{"protein": "B1", "values": [{"measurement": "hydrolysis of bovine haemoglobin (OPA assay, pH 3, 42 C)", "setting": "[1]", "value": "25.8±1.45 pmoles L-leucine/min/mg protein"}, {"measurement": "endoprotease activity (hydrolysis of bovine haemoglobin)", "setting": "Pepstatin A", "value": "completely inhibited by 2 µM pepstatin"}, {"measurement": "pepstatin insensitive activity (hydrolysis of bovine haemoglobin, 2 µM pepstatin)", "setting": "Pepstatin A", "value": "1.91±1.26 pmoles L-leucine/min/mg protein, 6.65%"}]}]}
